Legend:
Assay type in all cases: biochemical
[1] = Substrate specificity of GDHs produced by the E. coli transformant; conditions: according to Examples 3 and 5
[2] = GDH activity of purified enzymes (DCIP/PMS assay); conditions: purified enzyme
Procedure: Specifically, the activities of the flavin-bound GDHs are measured according to the following procedures. To initiate a reaction, 1.79 mL of 100 mM phosphate buffer (pH7.0), 0.08 mL of 1.25 M D-glucose solution, and 0.01 mL of 20 mM DCIP solution are mixed, followed by incubation at 37° C. for 5 minutes, and, subsequently, 0.02 mL of 20 mM PMS solution and 0.1 mL of an enzyme sample solution are added. Absorbance is measured at the initiation of the reaction and over time to determine a decrease in the absorbance at 600 nm (ΔA600) per minute due to the progress of the enzyme reaction and calculate flavin-bound GDH activity according to the following formula. […]
Solutions were mixed according to the following procedures, followed by absorbance measurement to examine GDH activity in the crude enzyme solution. […] A decrease in the absorbance at 600 nm (ΔA600) per minute due to the progress of the enzyme reaction after the initiation of the reaction was determined to calculate GDH activity according to the following formula. […]
GDH activity was measured as described in Example 1. GOD activity was measured using 4-aminoantipyrine (4-AA) and N-ethyl-N-(2-hydroxy-3-sulfopropyl)-3-methylaniline (TOOS) as described below. […] An increase in the absorbance at 555 nm (ΔA555) per minute due to the progress of the enzyme reaction was determined to calculate GOD activity according to the following formula.

[3] = GOD activity (4-AA/TOOS/POD assay); conditions: 37° C., 131 mM D-glucose
Procedure: GDH activity was measured as described in Example 1. GOD activity was measured using 4-aminoantipyrine (4-AA) and N-ethyl-N-(2-hydroxy-3-sulfopropyl)-3-methylaniline (TOOS) as described below. To initiate a reaction, 30.0 mL of 100 mM phosphate buffer (pH 7.0), 6.0 mL of 833 mM D-glucose solution, 0.3 mL of 25 mM 4-AA solution, 0.3 mL of 40 mM TOOS solution, and 0.3 mL of 500 U/mL POD solution were mixed, of which 3.0 mL was transferred into a test tube and incubated at 37° C. for five minutes, and 0.1 mL of an enzyme sample solution was added. An increase in the absorbance at 555 nm (ΔA555) per minute due to the progress of the enzyme reaction was determined to calculate GOD activity according to the following formula.
The formula indicates 3.1 as the liquid volume (mL) of reaction reagent plus enzyme reagent, 32.8 as millimolar extinction coefficient (cm^2/μmol) under the activity assay conditions, 0.5 as the number of quinoneimine dye molecules generated when one H2O2 molecule is reduced, 0.1 as the liquid volume (mL) of an enzyme solution, 1.0 as the optical path length (cm) of a cell, ΔA555blank as an increase in the absorbance at 555 nm per minute when 10 mM acetate buffer, instead of an enzyme sample solution, is added to initiate a reaction, and df as a dilution factor.

B1: NS1: GDH with a deletion to the 20th Ala and Met added to the 21st Gln (SEQ ID NO: 23) (protein)
chain: MQQDTNSSSTDTYDYVIVGGGVAGLALASRISENKDVTVAVLESGPNANDRFVVYAPGMYGQAVGTDLCPLIPTTPQENMGNRSLTIATGRLLGGGSAINGLVWTRGGLKDYDAWEELGNPGWNGANLFKYFKKVENFTPPTPAQIEYGATYQKSAHGKKGPIDVSFTNYEFSQSASWNASLETLDFTALPDILNGTLAGYSTTPNILDPETVQRVDSYTGYIAPYTSRNNLNVLANHTVSRIQFAPKNGSEPLKATGVEWYPTGNKNQKQIIKARYEVIISSGAIGSPKLLEISGIGNKDIVSAAGVESLIDLPGVGSNMQDHVHAITVSTTNITGYTTNSVFVNETLAQEQREEYEANKTGIWATTPNNLGYPTPEQLFNGTEFVSGKEFADKIRNSTDEWANYYASTNASNVELLKKQYAIVASRYEENYLSPIEINFTPGYEGSGNVDLQNNKYQTVNHVLIAPLSRGYTHINSSDVEDHSVINPQYYSHPMDIDVHIASTKLAREIITASPGLGDINSGEIEPGMNITSEDDLRSWLSNNVRSDWHPVGTCAMLPKELGGVVSPALMVYGTSNLRVVDASIMPLEVSSHLMQPTYGIAEKAADIIKNFYKTQHKNQN
modifications: NS1
[1]
  substrate specificity (in words): almost comparable with that of the purified GDH obtained in Example 2

B2: GOD derived from Aspergillus niger: commercial glucose oxidase derived from Aspergillus niger (GOD, biozyme laboratories) (protein, UniProt P13006 17-605, looked up)
Glucose oxidase: LPHYIRSNGIEASLLTDPKDVSGRTVDYIIAGGGLTGLTTAARLTENPNISVLVIESGSYESDRGPIIEDLNAYGDIFGSSVDHAYETVELATNNQTALIRSGNGLGGSTLVNGGTWTRPHKAQVDSWETVFGNEGWNWDNVAAYSLQAERARAPNAKQIAAGHYFNASCHGVNGTVHAGPRDTGDDYSPIVKALMSAVEDRGVPTKKDFGCGDPHGVSMFPNTLHEDQVRSDAAREWLLPNYQRPNLQVLTGQYVGKVLLSQNGTTPRAVGVEFGTHKGNTHNVYAKHEVLLAAGSAVSPTILEYSGIGMKSILEPLGIDTVVDLPVGLNLQDQTTATVRSRITSAGAGQGQAAWFATFNETFGDYSEKAHELLNTKLEQWAEEAVARGGFHNTTALLIQYENYRDWIVNHNVAYSELFLDTAGVASFDVWDLLPFTRGYVHILDKDPYLHHFAYDPQYFLNELDLLGQAAATQLARNISNSGAMQTYFAGETIPGDNLAYDADLSAWTEYIPYHFRPNYHGVGTCSMMPKEMGGVVDNAARVYGVQGLRVIDGSIPPTQMSSHVMTVFYAMALKISDAILEDYASMQ
[2]
  GDH activity: 3.50 U/mL
[3]
  GOD activity: 9.38 U/mL

B3: NS2: GDH with a deletion to the 20th Ala and the 21st Gln substituted by Met (SEQ ID NO: 25) (protein)
chain: MQDTNSSSTDTYDYVIVGGGVAGLALASRISENKDVTVAVLESGPNANDRFVVYAPGMYGQAVGTDLCPLIPTTPQENMGNRSLTIATGRLLGGGSAINGLVWTRGGLKDYDAWEELGNPGWNGANLFKYFKKVENFTPPTPAQIEYGATYQKSAHGKKGPIDVSFTNYEFSQSASWNASLETLDFTALPDILNGTLAGYSTTPNILDPETVQRVDSYTGYIAPYTSRNNLNVLANHTVSRIQFAPKNGSEPLKATGVEWYPTGNKNQKQIIKARYEVIISSGAIGSPKLLEISGIGNKDIVSAAGVESLIDLPGVGSNMQDHVHAITVSTTNITGYTTNSVFVNETLAQEQREEYEANKTGIWATTPNNLGYPTPEQLFNGTEFVSGKEFADKIRNSTDEWANYYASTNASNVELLKKQYAIVASRYEENYLSPIEINFTPGYEGSGNVDLQNNKYQTVNHVLIAPLSRGYTHINSSDVEDHSVINPQYYSHPMDIDVHIASTKLAREIITASPGLGDINSGEIEPGMNITSEDDLRSWLSNNVRSDWHPVGTCAMLPKELGGVVSPALMVYGTSNLRVVDASIMPLEVSSHLMQPTYGIAEKAADIIKNFYKTQHKNQN
modifications: NS2
[1]
  substrate specificity (in words): almost comparable with that of the purified GDH obtained in Example 2

B4: NS4: GDH with a deletion to the 27th Ser and the 28st Ser substituted by Met (SEQ ID NO: 32) (protein)
chain: MTDTYDYVIVGGGVAGLALASRISENKDVTVAVLESGPNANDRFVVYAPGMYGQAVGTDLCPLIPTTPQENMGNRSLTIATGRLLGGGSAINGLVWTRGGLKDYDAWEELGNPGWNGANLFKYFKKVENFTPPTPAQIEYGATYQKSAHGKKGPIDVSFTNYEFSQSASWNASLETLDFTALPDILNGTLAGYSTTPNILDPETVQRVDSYTGYIAPYTSRNNLNVLANHTVSRIQFAPKNGSEPLKATGVEWYPTGNKNQKQIIKARYEVIISSGAIGSPKLLEISGIGNKDIVSAAGVESLIDLPGVGSNMQDHVHAITVSTTNITGYTTNSVFVNETLAQEQREEYEANKTGIWATTPNNLGYPTPEQLFNGTEFVSGKEFADKIRNSTDEWANYYASTNASNVELLKKQYAIVASRYEENYLSPIEINFTPGYEGSGNVDLQNNKYQTVNHVLIAPLSRGYTHINSSDVEDHSVINPQYYSHPMDIDVHIASTKLAREIITASPGLGDINSGEIEPGMNITSEDDLRSWLSNNVRSDWHPVGTCAMLPKELGGVVSPALMVYGTSNLRVVDASIMPLEVSSHLMQPTYGIAEKAADIIKNFYKTQHKNQN
modifications: NS4
[1]
  substrate specificity (in words): almost comparable with that of the purified GDH obtained in Example 2

B5: NS3: GDH with a deletion to the 27th Ser and Met added to the 28st Ser (SEQ ID NO: 30) (protein)
chain: MSTDTYDYVIVGGGVAGLALASRISENKDVTVAVLESGPNANDRFVVYAPGMYGQAVGTDLCPLIPTTPQENMGNRSLTIATGRLLGGGSAINGLVWTRGGLKDYDAWEELGNPGWNGANLFKYFKKVENFTPPTPAQIEYGATYQKSAHGKKGPIDVSFTNYEFSQSASWNASLETLDFTALPDILNGTLAGYSTTPNILDPETVQRVDSYTGYIAPYTSRNNLNVLANHTVSRIQFAPKNGSEPLKATGVEWYPTGNKNQKQIIKARYEVIISSGAIGSPKLLEISGIGNKDIVSAAGVESLIDLPGVGSNMQDHVHAITVSTTNITGYTTNSVFVNETLAQEQREEYEANKTGIWATTPNNLGYPTPEQLFNGTEFVSGKEFADKIRNSTDEWANYYASTNASNVELLKKQYAIVASRYEENYLSPIEINFTPGYEGSGNVDLQNNKYQTVNHVLIAPLSRGYTHINSSDVEDHSVINPQYYSHPMDIDVHIASTKLAREIITASPGLGDINSGEIEPGMNITSEDDLRSWLSNNVRSDWHPVGTCAMLPKELGGVVSPALMVYGTSNLRVVDASIMPLEVSSHLMQPTYGIAEKAADIIKNFYKTQHKNQN
modifications: NS3
[1]
  substrate specificity (in words): almost comparable with that of the purified GDH obtained in Example 2

— US9238802B2, “E. coli transformant, method for producing flavin-bound glucose dehydrogenase using the same, and mutant flavin-bound glucose dehydrogenases” (KIKKOMAN CORPORATION, priority 2010, dated 2016)
